# Laboratory results from the supplement of paper PMC9112550, “Optimization of the antimicrobial peptide Bac7 by deep mutational scanning” (BMC Biology, 2022).
# Tested on: Escherichia coli TOP10
# Assay: shrunken log2 fold change of peptide-encoding DNA abundance (4.5 h post-induction vs induction); higher = less antimicrobial activity (less host growth inhibition)
# Conditions: time post-induction: 4.5 h; library: site-saturation at positions 5, 18, 19, 20
# 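Also: peptides expressed intracellularly from a pBAD plasmid library in pooled LB shake-flask culture, induced with 0.3% L-arabinose, DNA abundance read by NGS, three biological replicates, DESeq2 with apeglm shrinkage.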
row,Sequence,shrunken log2 fold change
1,RRIRNRPPRLPRPRPRPGVHPRP,0.25
2,RRIRLRPPRLPRPRPRPICVPRP,0.151
3,RRIRFRPPRLPRPRPRPVRYPRP,-0.0423
4,RRIRCRPPRLPRPRPRPSPVPRP,0.00196
5,RRIRMRPPRLPRPRPRPHDCPRP,0.0419
6,RRIRIRPPRLPRPRPRPYYHPRP,-0.839
7,RRIRYRPPRLPRPRPRPMDKPRP,-0.432
8,RRIRERPPRLPRPRPRPCQCPRP,-0.0543
9,RRIRMRPPRLPRPRPRPEDAPRP,3.45
10,RRIRLRPPRLPRPRPRPYKKPRP,-0.404
11,RRIRWRPPRLPRPRPRPLYMPRP,-0.684
12,RRIRWRPPRLPRPRPRPSNQPRP,-0.561
13,RRIRVRPPRLPRPRPRPYFGPRP,-0.0505
14,RRIRIRPPRLPRPRPRPMRYPRP,-0.176
15,RRIRKRPPRLPRPRPRPLDQPRP,0.257
16,RRIRKRPPRLPRPRPRPIGLPRP,0.0815
17,RRIRTRPPRLPRPRPRPSTNPRP,-0.488
18,RRIRIRPPRLPRPRPRPSLAPRP,0.0113
19,RRIRGRPPRLPRPRPRPTNHPRP,0.169
20,RRIRERPPRLPRPRPRPYLSPRP,-0.515
21,RRIRFRPPRLPRPRPRPYYVPRP,-0.14
22,RRIRTRPPRLPRPRPRPWGRPRP,0.00879
23,RRIRMRPPRLPRPRPRPLWLPRP,0.563
24,RRIRGRPPRLPRPRPRPVGRPRP,0.842
25,RRIRMRPPRLPRPRPRPEDMPRP,3.26

row,Sequence,shrunken log2 fold change
1,RRIRARPPRLPRPRPRPNLSPRP,-0.0536
2,RRIRTRPPRLPRPRPRPPDCPRP,0.0461
3,RRIRVRPPRLPRPRPRPSIIPRP,-0.384
4,RRIRERPPRLPRPRPRPRPVPRP,0.114
5,RRIRNRPPRLPRPRPRPIAVPRP,-0.0167
6,RRIRWRPPRLPRPRPRPIKVPRP,-0.146
7,RRIRYRPPRLPRPRPRPHNHPRP,-1.01
8,RRIRHRPPRLPRPRPRPWHSPRP,-0.22
9,RRIRPRPPRLPRPRPRPDARPRP,0.58
10,RRIRNRPPRLPRPRPRPFELPRP,0.00621
11,RRIRDRPPRLPRPRPRPEGPPRP,1.51
12,RRIRGRPPRLPRPRPRPKLCPRP,0.75
13,RRIRYRPPRLPRPRPRPDFLPRP,-0.542
14,RRIRERPPRLPRPRPRPKNAPRP,-0.352
15,RRIRMRPPRLPRPRPRPCGNPRP,0.137
16,RRIRCRPPRLPRPRPRPCFRPRP,-0.33
17,RRIRVRPPRLPRPRPRPHKGPRP,-0.0569
18,RRIRQRPPRLPRPRPRPCKAPRP,-0.218
19,RRIRYRPPRLPRPRPRPYKGPRP,-0.721
20,RRIRMRPPRLPRPRPRPGGNPRP,0.671
21,RRIRQRPPRLPRPRPRPYPRPRP,-0.258
22,RRIRCRPPRLPRPRPRPADHPRP,0.0117
23,RRIRWRPPRLPRPRPRPDGRPRP,-0.00151
24,RRIRFRPPRLPRPRPRPHRQPRP,-0.228
25,RRIRCRPPRLPRPRPRPQDMPRP,0.0633

row,Sequence,shrunken log2 fold change
1,RRIRWRPPRLPRPRPRPNDVPRP,-0.0909
2,RRIRMRPPRLPRPRPRPHAKPRP,0.256
3,RRIRPRPPRLPRPRPRPYFGPRP,-0.522
4,RRIRERPPRLPRPRPRPEQGPRP,0.0117
5,RRIRWRPPRLPRPRPRPMVMPRP,-0.0614
6,RRIRWRPPRLPRPRPRPKLQPRP,0.182
7,RRIRDRPPRLPRPRPRPICEPRP,0.229
8,RRIRVRPPRLPRPRPRPEAHPRP,0.0146
9,RRIRSRPPRLPRPRPRPPTYPRP,-0.243
10,RRIRRRPPRLPRPRPRPMQLPRP,0.596
11,RRIRYRPPRLPRPRPRPDYSPRP,-0.245
12,RRIRIRPPRLPRPRPRPTEWPRP,0.133
13,RRIRIRPPRLPRPRPRPAGEPRP,0.171
14,RRIRIRPPRLPRPRPRPSRTPRP,-0.455
15,RRIRGRPPRLPRPRPRPIWFPRP,0.31
16,RRIRPRPPRLPRPRPRPMGLPRP,0.0513
17,RRIRERPPRLPRPRPRPSFHPRP,-0.549
18,RRIRHRPPRLPRPRPRPHYCPRP,-0.0453
19,RRIRQRPPRLPRPRPRPCIPPRP,0.00582
20,RRIRQRPPRLPRPRPRPEHIPRP,-0.0129
21,RRIRCRPPRLPRPRPRPGSHPRP,-0.0784
22,RRIRSRPPRLPRPRPRPASVPRP,0.377
23,RRIRVRPPRLPRPRPRPLRAPRP,0.719
24,RRIRDRPPRLPRPRPRPKLCPRP,-0.0785
25,RRIRFRPPRLPRPRPRPINVPRP,-0.195

row,Sequence,shrunken log2 fold change
1,RRIRMRPPRLPRPRPRPFWLPRP,-0.179
2,RRIRERPPRLPRPRPRPWWDPRP,-0.0282
3,RRIRGRPPRLPRPRPRPQVCPRP,2.63e-05
4,RRIRDRPPRLPRPRPRPKMDPRP,0.0675
5,RRIRYRPPRLPRPRPRPITEPRP,-0.101
6,RRIRNRPPRLPRPRPRPLVFPRP,-0.147
7,RRIRRRPPRLPRPRPRPSVMPRP,0.157
8,RRIRKRPPRLPRPRPRPSLRPRP,-0.278
9,RRIRYRPPRLPRPRPRPNGQPRP,-0.0885
10,RRIRWRPPRLPRPRPRPNSLPRP,-0.123
11,RRIRMRPPRLPRPRPRPAYTPRP,-0.0493
12,RRIRSRPPRLPRPRPRPAEPPRP,-0.16
13,RRIRWRPPRLPRPRPRPRHSPRP,0.286
14,RRIRLRPPRLPRPRPRPFMDPRP,-0.361
15,RRIRTRPPRLPRPRPRPCQDPRP,-0.13
16,RRIRQRPPRLPRPRPRPGERPRP,0.0849
17,RRIRDRPPRLPRPRPRPQLLPRP,0.206
18,RRIRERPPRLPRPRPRPCWYPRP,-0.0102
19,RRIRYRPPRLPRPRPRPEEDPRP,-0.0024
20,RRIRMRPPRLPRPRPRPWQGPRP,0.155
21,RRIRHRPPRLPRPRPRPHHFPRP,-0.0916
22,RRIRCRPPRLPRPRPRPFAMPRP,-0.495
23,RRIRNRPPRLPRPRPRPHSQPRP,-0.392
24,RRIRGRPPRLPRPRPRPVVRPRP,0.602
25,RRIRPRPPRLPRPRPRPAWCPRP,0.252

row,Sequence,shrunken log2 fold change
1,RRIRHRPPRLPRPRPRPYSNPRP,-0.392
2,RRIRGRPPRLPRPRPRPIADPRP,0.16
3,RRIRDRPPRLPRPRPRPMLKPRP,0.111
4,RRIRARPPRLPRPRPRPPPFPRP,0.762
5,RRIRVRPPRLPRPRPRPICQPRP,-0.188
6,RRIRNRPPRLPRPRPRPVWHPRP,-0.154
7,RRIRPRPPRLPRPRPRPMESPRP,0.0152
8,RRIRRRPPRLPRPRPRPLQKPRP,0.44
9,RRIRVRPPRLPRPRPRPQGTPRP,-0.289
10,RRIRTRPPRLPRPRPRPFKGPRP,-0.264
11,RRIRRRPPRLPRPRPRPDMWPRP,0.103
12,RRIRCRPPRLPRPRPRPQFQPRP,-0.606
13,RRIRQRPPRLPRPRPRPSRHPRP,-0.0666
14,RRIRIRPPRLPRPRPRPIPGPRP,-0.191
15,RRIRSRPPRLPRPRPRPFGEPRP,-0.066
16,RRIRQRPPRLPRPRPRPKANPRP,0.0666
17,RRIRQRPPRLPRPRPRPMQQPRP,-0.0642
18,RRIRDRPPRLPRPRPRPWTTPRP,-0.0204
19,RRIRTRPPRLPRPRPRPWMFPRP,-0.355
20,RRIRFRPPRLPRPRPRPTYNPRP,-0.767
21,RRIRDRPPRLPRPRPRPRCHPRP,-0.0835
22,RRIRYRPPRLPRPRPRPCVNPRP,-0.177
23,RRIRARPPRLPRPRPRPIAYPRP,0.21
24,RRIRTRPPRLPRPRPRPDITPRP,-0.236
25,RRIRSRPPRLPRPRPRPESHPRP,-0.44

row,Sequence,shrunken log2 fold change
1,RRIRTRPPRLPRPRPRPVKIPRP,-1.21
2,RRIRTRPPRLPRPRPRPIDPPRP,-0.201
3,RRIRMRPPRLPRPRPRPHVGPRP,0.105
4,RRIRKRPPRLPRPRPRPTMRPRP,1.02
5,RRIRQRPPRLPRPRPRPDTKPRP,-0.00171
6,RRIRKRPPRLPRPRPRPFEKPRP,-0.045
7,RRIRIRPPRLPRPRPRPATTPRP,-0.145
8,RRIRWRPPRLPRPRPRPRSLPRP,-0.115
9,RRIRTRPPRLPRPRPRPARDPRP,0.146
10,RRIRMRPPRLPRPRPRPNYWPRP,-0.0168
11,RRIRQRPPRLPRPRPRPRIHPRP,-0.234
12,RRIRMRPPRLPRPRPRPQETPRP,-0.00161
13,RRIRIRPPRLPRPRPRPCDNPRP,-0.178
14,RRIRCRPPRLPRPRPRPDAQPRP,0.456
15,RRIRSRPPRLPRPRPRPRRTPRP,0.183
16,RRIRSRPPRLPRPRPRPMTQPRP,-0.116
17,RRIRGRPPRLPRPRPRPWNCPRP,-0.101
18,RRIRLRPPRLPRPRPRPRGHPRP,0.078
19,RRIRRRPPRLPRPRPRPDDFPRP,0.252
20,RRIRMRPPRLPRPRPRPTDNPRP,0.188
21,RRIRNRPPRLPRPRPRPFFHPRP,-0.446
22,RRIRMRPPRLPRPRPRPQNQPRP,-0.183
23,RRIRVRPPRLPRPRPRPEAWPRP,0.181
24,RRIRQRPPRLPRPRPRPVYVPRP,-0.216
25,RRIRNRPPRLPRPRPRPPNLPRP,-0.166
